Reference: the RNAGym collection of RNA variant scans (doi:10.7554/elife.80360)

B1: Hairpin Ribozyme (parent)
chain: GUCCUCUUUCACGUGCGCGUGAAAGAGAGAAGUGAACCAGAGAAACACACGUUGUGGUAUAUUACCUGGUA

Variants of: B1
Test: self-cleavage, relative activity (ratio to wild type); higher = more cleavage; co-transcriptional
In the case of U7A G57A, the self-cleavage is reported as 0.128.
For U7A G57C, the self-cleavage was 0.151.
C6G G19U showed a self-cleavage of 0.201.
Work on C6A C66A yielded a self-cleavage of 0.198.
Variant C6A C66U has a self-cleavage of 0.247.
With C6A C66G the self-cleavage was 0.109.
In the case of U7C C65A, the self-cleavage is reported as 0.684.
Variant C6G G57A has a self-cleavage of 0.11.
Work on U7A A23G yielded a self-cleavage of 0.866.
Work on C6U A31C yielded a self-cleavage of 0.0728.
C6A C37G gave a self-cleavage of 0.287.
With U7C A44G the self-cleavage was 0.0315.
Work on U7C A44C yielded a self-cleavage of 0.0427.
Variant C6U A24G has a self-cleavage of 0.353.
U7C U9A gave a self-cleavage of 0.607.
Work on C6G U9A yielded a self-cleavage of 0.274.
C6G U9G gave a self-cleavage of 0.208.
Work on U7C C46U yielded a self-cleavage of 0.195.
U7C C46A gave a self-cleavage of 0.224.
With U7C U67A the self-cleavage was 0.167.
Work on U7C U67C yielded a self-cleavage of 0.215.
Work on C6U G17C yielded a self-cleavage of 0.434.
In the case of C6U G17A, the self-cleavage is reported as 0.917.
For C6U G21U, the self-cleavage was 0.468.
In the case of C6G A30U, the self-cleavage is reported as 0.105.
For C6A C12A, the self-cleavage was 0.52.
C6U A28U showed a self-cleavage of 0.495.
U7C G34U showed a self-cleavage of 1.32.
U7C G34A gave a self-cleavage of 1.17.
With C6G G68U the self-cleavage was 0.156.
In the case of C6G G68A, the self-cleavage is reported as 0.132.
In the case of C6G G68C, the self-cleavage is reported as 0.131.
In the case of C6A G21A, the self-cleavage is reported as 0.6.
C6A G21U showed a self-cleavage of 0.542.
U7C C66G showed a self-cleavage of 0.0988.
U7C C66A showed a self-cleavage of 0.217.
Variant C6G A49C has a self-cleavage of 0.0827.
In the case of C6A A44G, the self-cleavage is reported as 0.113.
C6A A44U gave a self-cleavage of 0.167.
C6A A44C gave a self-cleavage of 0.0999.
In the case of U7C G15U, the self-cleavage is reported as 1.05.
In the case of U7C G15C, the self-cleavage is reported as 0.948.
U7A A45C showed a self-cleavage of 0.232.
With C6A U20A the self-cleavage was 0.551.
C6A U20C gave a self-cleavage of 0.556.
For C6G G17U, the self-cleavage was 0.369.
For U7A G34A, the self-cleavage was 1.39.
With C6U C38A the self-cleavage was 0.0889.
C6A U14C showed a self-cleavage of 0.579.
Variant U7C A71U has a self-cleavage of 0.592.
U7C C38G showed a self-cleavage of 0.202.
Variant C6A U60C has a self-cleavage of 0.793.
Work on C6A U60G yielded a self-cleavage of 0.4.
C6G C37U showed a self-cleavage of 0.257.
Work on U7A A64G yielded a self-cleavage of 0.525.
C6G G34C showed a self-cleavage of 1.03.
For C6U U62G, the self-cleavage was 0.102.
C6A G25C showed a self-cleavage of 0.64.
Work on C6A G25U yielded a self-cleavage of 0.763.
In the case of U7A G40A, the self-cleavage is reported as 0.313.
In the case of C6G G15A, the self-cleavage is reported as 0.475.
In the case of U7G A22U, the self-cleavage is reported as 0.59.
In the case of C6A U70C, the self-cleavage is reported as 0.618.
C6A U70A gave a self-cleavage of 0.598.
Variant U7G A23G has a self-cleavage of 0.752.
U7G A23C gave a self-cleavage of 0.624.
For C6G U33G, the self-cleavage was 0.0659.
C6G U33C showed a self-cleavage of 0.206.
U7A A36G gave a self-cleavage of 1.03.
For U7A A44G, the self-cleavage was 0.201.
Work on U7A A44U yielded a self-cleavage of 0.117.
For U7C G69C, the self-cleavage was 0.17.
With U7A U60G the self-cleavage was 0.496.
U7A U60C showed a self-cleavage of 0.923.
U7C G32C gave a self-cleavage of 0.141.
With U7A G42A the self-cleavage was 0.166.
With C6A G29C the self-cleavage was 0.123.
For C6G A28U, the self-cleavage was 0.22.
With C6G A28G the self-cleavage was 0.605.
With C6G A28C the self-cleavage was 0.145.
With C6A U53A the self-cleavage was 0.456.
Variant C6A U53C has a self-cleavage of 0.517.
C6G U8G gave a self-cleavage of 0.269.
C6G U8A showed a self-cleavage of 0.263.
C6G U8C showed a self-cleavage of 0.228.
Work on U7A G54C yielded a self-cleavage of 0.349.
In the case of U7A G15C, the self-cleavage is reported as 1.06.
For U7A G15A, the self-cleavage was 0.909.
U7A G15U gave a self-cleavage of 0.844.
U7A U53C showed a self-cleavage of 1.07.
In the case of U7A U53A, the self-cleavage is reported as 0.879.
In the case of C6A C16G, the self-cleavage is reported as 0.351.
Variant C6A C16U has a self-cleavage of 0.659.
U7C A41C showed a self-cleavage of 1.01.
In the case of C6U U33A, the self-cleavage is reported as 0.148.
C6U A35C gave a self-cleavage of 0.896.
C6U A35G showed a self-cleavage of 0.683.
For U7C G21U, the self-cleavage was 0.565.
With C6G U70C the self-cleavage was 0.497.
In the case of U7A A28U, the self-cleavage is reported as 0.58.
U7C A31U gave a self-cleavage of 0.112.
U7C A31G gave a self-cleavage of 0.525.
Variant C6G A22G has a self-cleavage of 0.52.
Variant C6G A22U has a self-cleavage of 0.377.
C6A G13C showed a self-cleavage of 0.341.
For U7G A39C, the self-cleavage was 0.48.
For U7A G21A, the self-cleavage was 0.706.
For C6U U8C, the self-cleavage was 0.686.
U7A G51U showed a self-cleavage of 0.866.
C6U G15U showed a self-cleavage of 0.814.
For U7C A43U, the self-cleavage was 0.151.
Work on U7A A43U yielded a self-cleavage of 0.216.
U7C A24C gave a self-cleavage of 1.04.
Variant U7C A24U has a self-cleavage of 0.707.
C6A U33A showed a self-cleavage of 0.129.
U7A U20A gave a self-cleavage of 0.723.
U7A U20C showed a self-cleavage of 0.774.
In the case of C6G C16G, the self-cleavage is reported as 0.423.
Variant U7C A47G has a self-cleavage of 0.0534.
Work on U7C G40U yielded a self-cleavage of 0.163.
C6A G17C gave a self-cleavage of 0.424.
Work on U7A C10U yielded a self-cleavage of 0.799.
U7A C10A gave a self-cleavage of 0.736.
Variant U7A C18G has a self-cleavage of 0.802.
For C6G A43G, the self-cleavage was 0.0944.
C6G A43U showed a self-cleavage of 0.0915.
Variant U7A U14C has a self-cleavage of 0.772.
Variant C6A C65A has a self-cleavage of 0.492.
C6G U62A gave a self-cleavage of 0.0667.
C6G U62G showed a self-cleavage of 0.159.
Work on U7A U63A yielded a self-cleavage of 0.181.
Work on C6G A71U yielded a self-cleavage of 0.409.
In the case of U7C A59G, the self-cleavage is reported as 0.088.
C6U G40U gave a self-cleavage of 0.166.
C6A G27U showed a self-cleavage of 0.121.
For C6A G27A, the self-cleavage was 0.126.
Variant U7C U8C has a self-cleavage of 0.52.
Work on U7C U8A yielded a self-cleavage of 0.615.
Work on C6G A61G yielded a self-cleavage of 0.147.
With U7A A41G the self-cleavage was 0.973.
C6U C48U gave a self-cleavage of 0.227.
C6U C48A showed a self-cleavage of 0.209.
For U7C U14A, the self-cleavage was 0.808.
In the case of U7A G29C, the self-cleavage is reported as 0.149.
U7A U62C showed a self-cleavage of 0.222.
C6A G42U showed a self-cleavage of 0.223.
In the case of C6A A47G, the self-cleavage is reported as 0.157.
Work on C6G G56U yielded a self-cleavage of 0.141.
In the case of C6A A64U, the self-cleavage is reported as 0.163.
In the case of C6A A64C, the self-cleavage is reported as 0.148.
With C6G C65U the self-cleavage was 0.221.
U7C A28U showed a self-cleavage of 0.514.
U7C A28C showed a self-cleavage of 0.367.
Work on C6A G19C yielded a self-cleavage of 0.55.
C6G A35G gave a self-cleavage of 0.414.
With C6G G32C the self-cleavage was 0.0741.
Variant C6G C46G has a self-cleavage of 0.124.
For C6A U9A, the self-cleavage was 0.417.
C6A U9C showed a self-cleavage of 0.262.
Work on U7G A35U yielded a self-cleavage of 0.921.
For U7G A35G, the self-cleavage was 0.916.
In the case of C6G A44G, the self-cleavage is reported as 0.134.
For C6G A44C, the self-cleavage was 0.17.
In the case of C6G A44U, the self-cleavage is reported as 0.148.
U7A A22U gave a self-cleavage of 0.814.
Work on U7C G17U yielded a self-cleavage of 0.892.
For U7A G17C, the self-cleavage was 0.791.
